The DeepSol protein solubility set

Experiment: soluble on expression in E. coli; label from the status in PepcDB or PDB records

Sequence	soluble on expression in E. coli
SNMQLDTLRRIVQEINSSVSLHDSLDIMVNQVADAMKVDVCSIYLLDERNQRYLLMASKGLNPESVGHVSLQLSEGLVGLVGQREEIVNLENASKHERFAYLPETGEEIYNSFLGVPVMYRRKVMGVLVVQNKQPQDFSEAAESFLVTLCAQLSGVIAHAHAVGNIDVFRKPSNGA	soluble
SPDEIAQVRFLIVGRTGWIANMVAELLEQRGERYAFASFRLEQREACERELDALRPQRVLNVLGSLGVRTSTGARTTGARPSAVTYWAC	soluble
SPFDTGPELESQIRNQYGVDVHVVPVLDTLNEAETLDRVAMQAARTIGPLVDSNAIIGVAWGATLSAVSRHLTRKMTHDSIVVQLNGAGNMQTTGITYASDIMRRFGSAYGARVEQFPVPAFFDHASTKTAMWNERSVQRILDLQARMSIAIFGVGSVDSDYPSHVYAGGYLDEHDLTMLAADDVVGDVATVFFRSDGSSDGITLNERSTGPSHEQLRQVRRRICVVSGASKINGLQGALAAGLATDLILDEASARRLVSFNGHS	soluble
SPRKESPLRTAVDAAALTTSDIARQLEVKVQRMNTAHEREANAISSFQQAYGIASAHLDRLLLRIPELPLPEIDDRDVDGGRVRGTFASLQRHHQALDDAISAMHQASEKVYTIPGKQATQEQDPALAQLLSVEKRRRSLGHALETLAGRGVEAGTATGLELNRVSSQVNDLVARRDALLRQRESGVQEGGLDSEELEMELQLTTSVLQRLRADLLGERQAMEATAKRLDQASRAALEGERSFSDAVRDRAWGELDNV	not soluble
SRFTISAAKPEDCKDIERMIMELAVYENMPDQVKISHKELERDGFGPNPFYHCLVAEVPEEHKSKDGNTTVGYVIFFYTYSTWKGRTVYMEDLYVMPEFRGNGIGKALLGAVAKEAKDQLCSRLQFSVLDWNKPSLDFYMAKGAEDLTAKEGWHFLRFHGMALDNLAQEAP	soluble
SRRLVHDLLPPEVCSLLNPAAIYANNEISLRDVEVYGFDYDYTLAQYADALHPEIFSTARDILIEHYKSLLMKIDAFHYVQLGTAYRGLQPVPDEEVIELYGGTQHIPLYQMSGFYGKGPSIKQFMDIFSLPEMALLSCVVDYFLGHSLEFDQAHLYKDVTDAIRDVHVKGLMYQWIEQDMEKYILRGDETFAVLSRLVAHGKQLFLITNSPFSFVDKGMRHMVGPDWRQLFDVVIVQADKPSFFTDRRKPFRKLDEKGSLQWDRITRLEKGKIYRQGNLFDFLRLTEWRGPRVLYFGDHLYSDLADLMLRHGWRTGAIIPELEREIRIINTEQYMHSLTWQQALTGLLERMQTYQDAESRQVLAAWMKERQELRCITKALFNAQFGSIFRTFHNPTYFSRRLVRFSDLYMASLSCLLNYRVDFTFYPRRTPLQHEAPLWMDQLCTGCMKTPFLGDMAHIR	not soluble
SRSRPAGPALLLLLLFLGAAESVRRAQPPRRYTPDWPSLDSRPLPAWFDEAKFGVFIHWGVFSVPAWGSEWFWWHWQGEGRPQYQRFMRDNYPPGFSYADFGPQFTARFFHPEEWADLFQAAGAKYVVLTTKHHEGFTNWPSPVSWNWNSKDVGPHRDLVGELGTALRKRNIRYGLYHSLLEWFHPLYLLDKKNGFKTQHFVSAKTMPELYDLVNSYKPDLIWSDGEWECPDTYWNSTNFLSWLYNDSPVKDEVVVNDRWGQNCSCHHGGYYNCEDKFKPQSLPDHKWEMCTSIDKFSWGYRRDMALSDVTEESEIISELVQTVSLGGNYLLNIGPTKDGLIVPIFQERLLAVGKWLSINGEAIYASKPWRVQWEKNTTSVWYTSKGSAVYAIFLHWPENGVLNLESPITTSTTKITMLGIQGDLKWSTDPDKGLFISLPQLPPSAVPAEFAWTIKLTGVK	soluble
SRVKKNVLDYNAWAEGTLKGIKQEKKAYKERHRLFFEGLSEAEKVEYATKMAHDAQIYDEPEFDPQELQSEYYRGLYAFDNRKNNVDSYK	soluble
SRVSVTDYKRLLDSGAFHLLLDVRPQVEVDICRLPHALHIPLKHLERRDAESLKLLKEAIWEEKQGTQEGAAVPIYVICKLGNDSQKAVKILQSLSAAQELDPLTVRDVVGGLMAWAAKIDGTFPQY	soluble
SSAAQPGVAFSVDNTIKRPNPAPGTRKKSSNAEVIKELNKCREENSMRLDLSKRSIHILPSSIKELTQLTELYLYSNKLQSLPAEVGCLVNLMTLALSENSLTSLPDSLDNLKKLRMLDLRHNKLREIPSVVYRLDSLTTLYLRFNRITTVEKDIKNLSKLSMLSIRENKIKQLPAEIGELCNLITLDVAHNQLEHLPKEIGNCTQITNLDLQHNELLDLPDTIGN	soluble
SSEQAIIVSAINHSLAQFSCHLIDGVTGSGKTEVYLQSMEEVLANNQQVLVIVPEIGLTPQTLNRFEQRFNVPIALHHSGLNDKERLATWLSAQQGSAAIVIGTRSAVFTPLHRLGLIIIDEEHDSSLKQQDSFRYHCRDMAILRARQLNIPIVLGTATP	not soluble
SSEWMKKGPLEWQDYIYKEVRVTASEKNEYKGWVLTTDPVSANIVLVNFLEDGSMSVTGIMGHAVQTVETMNEGDHRVREKLMHLF	soluble
SSFQTSLPRLPVPAVKDTVSRYLESVRPLMKEGDFQRMTALAQDFAVNLGPKLQWYLKLKSWWATNYVSDWWEEYIYLRGRGPIMVNSNYYAMEMLYITPTHIQAARAGNTIHAILLYRRTVDREELKPIRLLGSTIPLCSAQWERLFNTSRIPGEETDTIQHVKDSRHIVVYHRGRYFKVWLYHDGRLLRPRELEQQMQQILDDTSEPQPGEAKLAALTAADRVPWAKCRQTYFARGKNKQSLDAVEKAAFFVTLDESEQGYREEDPEASIDSYAKSLLHGRCFDRWFDKSITFVVFKNSKIGINAEHSWADAPIVGHLWEYVMATDVFQLGYSEDGHCKGDKNPNIPKPTRLQWDIPGECQEVIETSLSSASFLANDVDLHSFPFDTFGKGLIKKCRTSPDAFIQLALQLAHYKDMGKFCLTYEASMTRLFREGRTETVRSCTTESCNFVLAMMDPTTTAEQRFKLFKIACEKHQHLYRLAMTGAGIDRHLFCLYVVSKYLAVDSPFLKEVLSEPWRLSTSQTPQQQVELFDFEKYPDYVSCGGGFGPVADDGYGVSYIIVGENFIHFHISSKFSSPETDSHRFGKHLRQAMMDIITLFGLTANSKK	soluble
SSHGHSHGGGGCRCAAEREEPPEQRGLAYGLYLRIDLERLQCLNESREGSGRGVFKPWEERTDRSKFVESDADEELLFNIPFTGNVKLKGIIIMGEDDDSHPSEMRLYKNIPQMSFDDTEREPDQTFSLNRDLTGELEYATKISRFSNVYHLSIHISKNFGADTTKVFYIGLRGEWTELRRHEVTICNYEASANPADHRVHQVTPQTHFIS	soluble
SSKIILIPSNIPQEFPEASISNPERLRILAQVKDFIPHESTIVIDKVPTITSEQSTYINICIFNLLEACSSRVLVPGTLVNIDAFYDGESINPVDIYEVNGANFTMENIQLIDEMNNSIGKFN	soluble
SSNKEGSGGFRKRKHDNFPHNQRREGKDVNSSSPVMLAFKSFQQELDARHDKYERLVKLSRDITVESKRTIFLLHRITSAPDMEDILTESEIKLDGVRQKIFQVAQELSGEDMHQFHRAITTGLQEYVEAVSFQHFIKTRSLISMDEINKQLIFTTEDNGKENKTPSSDAQDKQFGTWRLRVTPVDYLLGVADLTGELMRMCINSVGNGDIDTPFEVSQFLRQVYDGFSFIGNTGPYEVSKKLYTLKQSLAKVENACYALKVRGSEIPKHMLADVFSVKTEMIDQEEGIS	soluble
SSNVIIMGHKFPDMDSIGAAIGILKVAQANNKDGFIVIDPNQIGSSVQRLIGEIKKYEELWSRFITPEEAMEISNDDTLLVIVDTHKPSLVMEERLVNKIEHIVVIDHHRRGEEFIRDPLLVYMEPYASSTAELVTELLEYQPKRLKINMIEATALLAGIIVDTKSFSLRTGSRTFDAASYLRAKGADTVLVQKFLKETV	not soluble
SSQKSLFREDWFQNGSFVSLTLYIKDVDRDESNVTFTQQTVTVNLFSARDKSIYEQTWELSHPVVAEQSLVTYFPQKVELKMKKKEEGLLWKQLTSGATLKSSDNTQSSYSSRETASLQSGRFPKQFAVEEDDDEEQDQSKDLLAFFRDIYEKSDEDTRRAMVKSFVESQGKVLSTDWKKVSSQNSRYDNE	soluble
SSRGSGILPDEFMFAEFKRQCLSTENWVNKYDKNDMEVWVEQAPLSASINNKGNYSKVHKIRCQINIKDVSAATMYDVLHDGQYRKTWDPTMLESFDIARLAHNADVGYYSWICPKPLKNRDVVTLRSWQASENEYVIINFSVKHPKYPPRKDLVRAVSLMTGYLIKPTGPQSCTFTYLSQADPKGSLPKWVVNKASQVLAPKVLRSAHKAGQNYPAWKAANSPDHKPWLYPIQSELAMMDPAELSIQRGDSLENVDESSTRDAQENEDSS	soluble
SSSSQHFNLNFTITNLPYSQDIAQPSTTKYQQTKRSIENALNQLFRNSSIKSYFSDCQVLAFRSVSNNNNHTGVDSLCNFSPLARRVDRVAIYEEFLRMTHNGTQLLNFTLDRKSVFVD	soluble
STEDSVKAVKRAADDDPHTETEHEDKKLKTDQEERKYPKKKVALLMAYSGKGYYGMQRNARNSQFKTIEDELVTALVGARCIPEGHAEEMKKMSFQRSARTDKGVSAVGRVVSLKVWMIENILEKINAHLPPRIRVLGCKRVTGGFNSKNNCYARTYSYMLPTVAFSPKDYNQEDTSFRLTSDTLQTVNRLFCLYKGTHNFHNFTSQKGHRDPSAMRYITHMSCGEPFIRKDVEFAVITVRGQSFMMHQIRKMIGLVIAVVKGYVDEGVMEKSWGEEKVGVSKAPGLGLVLERVHFDGYNKRFGGDGIHETLEWTEQEEAIADFKEKHIYPTIVDTELNERSMVNWMTSLCIHDFEETATGNQDRKDDDEDGSASD	soluble
STEESMYTQIIKELPREGSSDVLVIKNEHVKKSDIWPSGGEMVVKDLTVKYMDDGNAVLENISFSISPGQRVGLLGRTGSGKSTLLSAFLRMLNIKGDIEIDGVSWNSVTLQEWRKAFGVITQKVFIFSGTFRQNLDPNGKWKDEEIWKVADEVGLKSVIEQFPGQLNFTLVDGGYVLSHGHKQLMCLARSVLSKAKIILLDQPSAHLDPITYQVIRRVLKQAFAGCTVILCEHRIEAMLDCQRFLVIEESNVWQYDSLQALLSEKSIFQQAISSSEKMRFFQGRHSSKHKPRTQITALKEETEEEVQETRL	not soluble
STFRERLLHKNLQEHFSNQDLVFLLLTPSIITESCSTHRLEHSLYKPQKGLFHRVPLVVANLGMSEQLGYKTVSGSCMSTGFSRAVQTHSSKFFEEDGSLKEVHKINEMYASLQEELKSICKKVEDSEQAVDKLVKDVNRLKREIEKRRGAQIQAAREKNIQKDPQENIFLCQALRTFFPNSEFLHSCVMSLKNRHVSKSSCNYNHHLDVVDNLTLMVEHTDIPEASPASTPQIIKHKALDLDDRWQFKRSRLLDTQDKRSKADTGSSNQDKASKMSSPETDEEIEKMKGFGEYSRSPTF	not soluble
STHSELMEKFLTDYLNDLQGRNDDDASGTWDFYGSSVCEPDDESGYDVLANPPGPEDQDDDDDAYSDVFEFEFSETPLLPCYNIQVSVAQGPRNWLLLSDVLKKLKMSSRIFRCNFPNVEIVTIAEAEFYRQVSASLLFSCSKDLEAFNPESKELLDLVEFTNEIQTLLGSSVEWLHPSDLASDNYW	soluble
STQACPQPKTLDEFTIIQNLQPQYQFRDYFIATCKQGYQLIEGNQVLHSFTAVCQDDGTWHRAMPRCKIKDCGQPRNLPNGDFRYTTTMGVNTYKARIQYYCHEPYYKMQTRAGSRESEQGVYTCTAQGIWKNEQKGEKIPRCLPVCGKPVNPVEQRQR	soluble
